Article PMC8790569

Key:
[1] = test system: T1, AnLexA (Anabaena sp. strain PCC 7120), ORF:0695c96d; test: EMSA; details: 20 mM Tris-Cl pH 7.5, 1 mM EDTA, 20 ul, RT 30 min; 10% native PAGE in 0.5x TBE
T1 sequence: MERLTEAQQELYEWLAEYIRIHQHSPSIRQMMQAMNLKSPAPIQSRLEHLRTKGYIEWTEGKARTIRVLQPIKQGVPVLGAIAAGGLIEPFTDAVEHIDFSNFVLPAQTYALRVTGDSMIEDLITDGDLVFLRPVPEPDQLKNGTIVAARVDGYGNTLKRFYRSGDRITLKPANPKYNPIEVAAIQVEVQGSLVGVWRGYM

[2] = test system: T2, AzuR (Anabaena sp. strain PCC 7120), ORF:06435f25; test: EMSA; details: 20 mM Tris-Cl pH 7.5, 1 mM EDTA, 20 ul, RT 30 min; 10% native PAGE in 0.5x TBE
T2 sequence: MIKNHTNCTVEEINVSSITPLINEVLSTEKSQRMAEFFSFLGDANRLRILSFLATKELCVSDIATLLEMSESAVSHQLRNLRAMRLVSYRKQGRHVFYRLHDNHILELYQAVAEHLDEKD

[3] = target: AzuR (Alr0831) (Anabaena sp. strain PCC 7120); test: cross-linking; purified AzuR (5 ug) with 10 mM glutaraldehyde, room temperature, 10-15 min, 10 mM Tris pH 7.5; cracking buffer without DTT; 15% SDS-PAGE, Coomassie
[4] = target: AzuR (Alr0831) (Anabaena sp. strain PCC 7120); test: SEC; Superdex 75, 20 mM Tris, 100 mM NaCl, pH 7.5, 25 °C, 0.5 ml/min; calibrated with gel filtration markers

| Substance | binding [1] | binding [2] | stoichiometry N [3] | stoichiometry N [4] |
| --- | --- | --- | --- | --- |
| AAACGTATTATATAACCTAATTGTTACATTTTATTAAGCAATACTTGAACATCTGTTCAGGTATTGTAGTGTAATCACAAGTGAAAACGGAGGAAATAAT (double strand) [PnmtA (100 bp upstream of nmtA ORF)] | no binding | binds |  |  |
| AzuR (Alr0831) (natural protein) |  |  | 2 | 2 |
